In patent publication US20190016816A1 (APTEVO RESEARCH AND DEVELOPMENT, published 2019):

T1: human 5T4 on cells (human, UniProt Q13641 32-420)
T1 construct: also called TPBG; hu5T4
T1 sequence: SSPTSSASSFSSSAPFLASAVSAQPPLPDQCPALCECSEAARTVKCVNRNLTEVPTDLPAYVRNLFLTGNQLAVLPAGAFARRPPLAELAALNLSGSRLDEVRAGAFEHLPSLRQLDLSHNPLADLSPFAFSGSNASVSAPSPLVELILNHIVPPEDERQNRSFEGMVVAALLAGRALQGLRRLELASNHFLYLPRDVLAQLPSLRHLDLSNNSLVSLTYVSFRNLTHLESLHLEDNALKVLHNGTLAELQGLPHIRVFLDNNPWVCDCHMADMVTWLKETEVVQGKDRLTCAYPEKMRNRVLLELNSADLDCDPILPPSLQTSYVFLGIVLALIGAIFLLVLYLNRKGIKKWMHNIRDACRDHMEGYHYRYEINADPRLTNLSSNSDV


Columns and labels:
[1] = target: cynomolgus CD137 on cells (cynomolgus macaque, UniProt A9YYE7 24-254); test: cell-based or functional assay
FcγRI (CD64) = target: T2, FcγRI (CD64) (UniProt P12314 16-374, limits assumed); test: flow cytometry, CHO cells stably expressing CD64, fluorescent anti-human IgG secondary, MFI (mean)
T2 construct: whole, on cells
Text: ALG.APV-210 contains mutations introduced to prevent interaction with Fcγ receptors (FcγR) that could lead to FcγR-mediated T-cell activation or ADCC, ADCP, CDC etc. Binding of ALG.APV-210 was therefore tested on CHO cell transfectants stably expressing the following FcγR: FcγRI (CD64), FcγRIIa (CD32a His131), FcγRIIb (CD32b), FcγRIIIa (CD16a Val158 and CD16a Phe158), and FcγRIIIb (CD16b). Untransfected CHO cells were used as negative control. A control human IgG1 molecule was used as a positive control. Different concentrations of ALG.APV-210 or control IgG1 were incubated with the FcγR-expressing cell lines, washed, and labeled with a secondary anti-human IgG reagent. Binding of ALG.APV-210 and the control IgG1 was detected by flow cytometry.

human 5T4 on cells [2] = target: T1, human 5T4 on cells; test: flow cytometry, CT26-hu5T4^high cells, streptavidin-PE, normalized MFI of 2 pooled experiments
Protocol: (§1) Prior to the FACS staining, all cell lines were characterized for their 5T4 expression levels using a receptor density kit (Quantum Simply Cellular, anti-human IgG, Bangs Laboratories, Inc). Adherent cell lines were cultured according to their supplier's instructions and were harvested from their cell culture flasks using Trypsin/EDTA, counted in R10 medium in a Burker chamber, and diluted in FACS buffer (PBS+0.5% BSA, 0.05% NaN₃) to a concentration of 4×10⁶ cells/mL. 50 μL (0.20×10⁶) of cell solution was added to a 96-well FACS staining plate (Falcon #351190). Cells were incubated for 20 min in 4° C. with 50 μL of the biotinylated ALG.APV-210 (2× final concentration). The antibodies were added in a serial dilution starting at 20 μg/mL titrating down in a 12 step ½ dilution down to 0.010 μg/mL. Following 2× washing with FACS buffer, cells were incubated for 30 min in 4° C. with 100 μL of a secondary antibody (streptavidin-PE, BD #554061, diluted 1/500). […] Cells were analysed for ALG.APV-210 binding using flow cytometry (FACSVerse) by gating on single cells. MFI values (secondary antibody only subtracted) from 1 out of 2 independent experiments, as well as normalized data and EC₅₀-values of pooled data from 2 experiments were determined and plotted using GraphPad Prism 7, non-linear regression log (agonist) vs. normalized response—variable slope.

human 5T4 on cells [3] = target: T1, human 5T4 on cells; test: flow cytometry, HCT-116 cells, streptavidin-PE, normalized MFI of 2 pooled experiments; HCT-116 cells
Protocol: as §1

human CD137 on cells = target: T3, human CD137 on cells (human, UniProt Q07011 24-255); test: flow cytometry, CD8 T cells gated from CD3-stimulated human PBMC, biotinylated antibody + streptavidin-APC, exp 1, n=3 donors
T3 construct: also called 4-1BB; TNFRSF9 (CHO-K1/human CD137 cells)
Protocol: Following 48 h of incubation with or without CD3, human and cynomolgus PBMC were harvested, pooled, recounted and diluted in FACS buffer (PBS+0.5% BSA, 0.05% NaN₃) to a concentration of 5×10⁶ cells/mL. 50 μL (0.25×10⁶ cells) of cell solution was added to a 96-well FACS staining plate (Falcon #351190). Following 10 min of Fc-blocking in RT using Beriglobin (hIgG, 200 μg/mL), cells were washed in FACS buffer and then incubated for 1 h in 4° C. with 100 μL of the biotinylated ALG.APV-210 or negative control. […] Cells were analysed for ALG.APV-210 binding using flow cytometry by gating on viable, single cells expressing CD3 and CD8. MFI values (FMO subtracted) from 2 independent experiments as well as normalized pooled data from 2 experiments and EC₅₀-values were determined and plotted using GraphPad Prism 7, non-linear regression log (agonist) vs. normalized response—variable slope, n=6 donors/group.
In ELISA tests, the binding of biotinylated ALG.APV-210 to CD137 was similar to that of the non-biotinylated ALG.APV-210 (0.6 nM vs. 0.7 nM). The binding (EC₅₀) of the biotinylated ALG.APV-210 to its immunomodulatory target CD137 when expressed on activated primary human and cynomolgus CD8 T cells from CD3 stimulated PBMC was assessed and compared between the two species as well as to unstimulated cells. […]

T2 sequence (P12314 16-374 limits assumed): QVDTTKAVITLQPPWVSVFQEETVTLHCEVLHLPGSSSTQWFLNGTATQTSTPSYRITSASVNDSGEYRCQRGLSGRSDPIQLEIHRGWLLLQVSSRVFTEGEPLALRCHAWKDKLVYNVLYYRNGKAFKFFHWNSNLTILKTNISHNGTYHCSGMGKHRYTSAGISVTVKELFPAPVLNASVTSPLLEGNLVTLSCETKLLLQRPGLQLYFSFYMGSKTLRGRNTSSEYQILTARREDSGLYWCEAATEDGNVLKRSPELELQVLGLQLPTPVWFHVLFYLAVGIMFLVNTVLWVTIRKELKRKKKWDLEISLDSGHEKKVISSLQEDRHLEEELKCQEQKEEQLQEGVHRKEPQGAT
Sequence of cynomolgus CD137 on cells (A9YYE7 entry or part of it): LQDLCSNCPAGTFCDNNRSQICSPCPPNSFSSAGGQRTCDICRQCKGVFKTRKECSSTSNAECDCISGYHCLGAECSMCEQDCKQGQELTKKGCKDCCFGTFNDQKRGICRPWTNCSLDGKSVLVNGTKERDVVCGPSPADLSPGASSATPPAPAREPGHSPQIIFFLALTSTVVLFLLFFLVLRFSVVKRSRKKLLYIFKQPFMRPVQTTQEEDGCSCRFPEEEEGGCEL
T3 sequence (Q07011 24-255 limits assumed): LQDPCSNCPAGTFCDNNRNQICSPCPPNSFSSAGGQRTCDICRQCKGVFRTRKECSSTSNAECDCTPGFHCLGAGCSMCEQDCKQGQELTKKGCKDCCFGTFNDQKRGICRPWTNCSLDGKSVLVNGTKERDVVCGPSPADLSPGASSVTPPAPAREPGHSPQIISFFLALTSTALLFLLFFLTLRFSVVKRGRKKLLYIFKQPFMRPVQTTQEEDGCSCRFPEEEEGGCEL

Row | Binder | EC50 (nM), IFNγ release of cynomolgus CD8 T cells on plate immobilized 5T4-Fc and anti-CD3 [1] | binding result (FcγRI (CD64)) | EC50 (human 5T4 on cells [2]) | EC50 (human 5T4 on cells [3]) | EC50 (read off the curve) (human CD137 on cells)
1 | ALG.APV-210 (bispecific antibody, Optimized ADAPTIR scFv-Fc-scFv homodimer with stabilizing disulfide in the 1210 scFv; also called 5T4-CD137 bispecific antibody) EVQLLESGGGLVQPGGSLRLSCAASGFTFSHGSMYWVRQAPGKGLEWVSSISSGSGSTYYADSVKGRFTISHDNSKNTLYLQMNSLRAEDTAVYYCARSSYYGSYYSIDYWGQGTLVTVSSGGGGSGGGGSGGGGSGGGGSDIQMTQSPSSLSASVGDRVTITCRASQSISSYLNWYQQKPGKAPKLLIYAASSLQSGVPSRFSGSGSGTDFTLTISSLQPEDFATYYCQQYYDNLPTFGQGTKLEIKEPKSSDKTHTCPPCPAPEAAGAPSVFLFPPKPKDTLMISRTPEVTCVVVDVSHEDPEVKFNWYVDGVEVHNAKTKPREEQYNSTYRVVSVLTVLHQDWLNGKEYKCAVSNKALPAPIEKTISKAKGQPREPQVYTLPPSRDELTKNQVSLTCLVKGFYPSDIAVEWESNGQPENNYKTTPPVLDSDGSFFLYSKLTVDKSRWQQGNVFSCSVMHEALHNHYTQKSLSLSPGSGGGGSGGGGSGGGGSPSEVQLLESGGGLVQPGGSLRLSCAASGFTFSSYAMSWVRQAPGKCLEWVSAISGSGGSTYYADSVKGRFTISRDNSKNTLYLQMNSLRAEDTAVYYCARYYGGYYSAWMDYWGQGTLVTVSSGGGGSGGGGSGGGGSGGGGSDIQMTQSPSSLSASVGDRVTITCRASQSISSFLNWYQQKPGKAPKLLIYAASSLQSGVPSRFSGSGSGTDFTLTISSLQPEDSATYYCQQTYGYLHTFGCGTKLEIKR | 0.4 nM | no binding (tested: 1000 nM) | – | – | –
2 | biotinylated ALG.APV-210 (bispecific antibody, also called ALG.APV-210 (biotinylated for FACS detection)) EVQLLESGGGLVQPGGSLRLSCAASGFTFSHGSMYWVRQAPGKGLEWVSSISSGSGSTYYADSVKGRFTISHDNSKNTLYLQMNSLRAEDTAVYYCARSSYYGSYYSIDYWGQGTLVTVSSGGGGSGGGGSGGGGSGGGGSDIQMTQSPSSLSASVGDRVTITCRASQSISSYLNWYQQKPGKAPKLLIYAASSLQSGVPSRFSGSGSGTDFTLTISSLQPEDFATYYCQQYYDNLPTFGQGTKLEIKEPKSSDKTHTCPPCPAPEAAGAPSVFLFPPKPKDTLMISRTPEVTCVVVDVSHEDPEVKFNWYVDGVEVHNAKTKPREEQYNSTYRVVSVLTVLHQDWLNGKEYKCAVSNKALPAPIEKTISKAKGQPREPQVYTLPPSRDELTKNQVSLTCLVKGFYPSDIAVEWESNGQPENNYKTTPPVLDSDGSFFLYSKLTVDKSRWQQGNVFSCSVMHEALHNHYTQKSLSLSPGSGGGGSGGGGSGGGGSPSEVQLLESGGGLVQPGGSLRLSCAASGFTFSSYAMSWVRQAPGKCLEWVSAISGSGGSTYYADSVKGRFTISRDNSKNTLYLQMNSLRAEDTAVYYCARYYGGYYSAWMDYWGQGTLVTVSSGGGGSGGGGSGGGGSGGGGSDIQMTQSPSSLSASVGDRVTITCRASQSISSFLNWYQQKPGKAPKLLIYAASSLQSGVPSRFSGSGSGTDFTLTISSLQPEDSATYYCQQTYGYLHTFGCGTKLEIKR | – | – | 20 nM | 16 nM | ~0.3 nM
